From article doi:10.1101/412908 (bioRxiv, 2018)

B1: acrylodan-labeled C-terminal domain of Aha1 (164-338) (domain or fragment)
chain: ILPTMNGESVDPVGQPALKTEERKAKPAPSKTQARPVGVKIPTCKITLKETFLTSPEELYRVFTTQELVQAFTHAPATLEADRGGKFHMVDGNVSGEFTDLVPEKHIVMKWRFKSWPEGHFATITLTFIDKNGETELCMEGRGIPAPEEERTRQGWQRYYFEGIKQTFGYGARLF
modifications: acrylodan (thiol-reactive probe on cysteine residues)
B2: human Hsp90β (natural protein)
chain: not shown

Legend:
human Hsp90β = target: B2; assay: other fluorescence titration
human Hsp90β, sequence (P08238 whole entry): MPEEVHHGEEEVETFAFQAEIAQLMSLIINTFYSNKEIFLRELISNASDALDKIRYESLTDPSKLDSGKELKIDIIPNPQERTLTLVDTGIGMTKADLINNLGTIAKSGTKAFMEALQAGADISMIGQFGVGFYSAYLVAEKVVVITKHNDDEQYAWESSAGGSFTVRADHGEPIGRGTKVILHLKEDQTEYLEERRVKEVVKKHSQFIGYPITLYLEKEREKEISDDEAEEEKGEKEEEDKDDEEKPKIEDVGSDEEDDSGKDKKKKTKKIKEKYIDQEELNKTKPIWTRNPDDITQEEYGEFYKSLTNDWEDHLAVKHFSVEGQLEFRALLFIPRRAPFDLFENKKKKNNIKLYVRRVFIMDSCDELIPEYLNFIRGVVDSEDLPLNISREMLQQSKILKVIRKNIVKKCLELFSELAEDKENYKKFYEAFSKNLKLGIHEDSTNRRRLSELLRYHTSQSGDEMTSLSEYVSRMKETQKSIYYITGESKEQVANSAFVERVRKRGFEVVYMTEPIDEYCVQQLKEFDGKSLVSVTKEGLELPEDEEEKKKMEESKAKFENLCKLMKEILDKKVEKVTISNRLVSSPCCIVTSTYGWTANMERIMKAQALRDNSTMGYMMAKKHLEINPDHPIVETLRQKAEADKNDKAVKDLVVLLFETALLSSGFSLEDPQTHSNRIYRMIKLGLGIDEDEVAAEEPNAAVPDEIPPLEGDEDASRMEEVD

[1] = target: B1; assay: other fluorescence titration

Binder	binding result (human Hsp90β)	fold increase in Kd with SEW04784 against without [1] [fold]
B1	binds	–
B2	–	2.5
